Source: patent publication US10221225B2, “Peptides and combination of peptides and scaffolds thereof for use in immunotherapy against colorectal carcinoma (CRC) and other cancers” (immatics biotechnologies GmbH, priority 2015, dated 2019)

Target: HLA-A*02:01 (Homo sapiens, UniProt P04439, D140Y/D185E/D98H/E176V/E277Q/G131W/G231S/I119V/I121R/I166T/I218V/L300P/L318F/N151K/N90K/P208A/P217A/Q86G/Q94H/R138H/R169H/T345S)
Test: MHC binding assay (UV-ligand exchange, beta2m ELISA, peptide exchange yield)
Conditions: MHC class I binding score; binding to HLA-A*02:01 ranged by peptide exchange yield (UV-ligand exchange, β2m ELISA)
Excerpt: Candidate peptides for T cell based therapies according to the present invention were further tested for their MHC binding capacity (affinity). The individual peptide-MHC complexes were produced by UV-ligand exchange, where a UV-sensitive peptide is cleaved upon UV-irradiation, and exchanged with the peptide of interest as analyzed. Only peptide candidates that can effectively bind and stabilize the peptide-receptive MHC molecules prevent dissociation of the MHC complexes. To determine the yield of the exchange reaction, an ELISA was performed based on the detection of the light chain (β2m) of stabilized MHC complexes. The assay was performed as generally described in Rodenko et al. (Rodenko et al., 2006).
96 well MAXISorp plates (NUNC) were coated over night with 2 ug/ml streptavidin in PBS at room temperature, washed 4× and blocked for 1 h at 37° C. in 2% BSA containing blocking buffer. Refolded HLA-A*02:01/MLA-001 monomers served as standards, covering the range of 15-500 ng/ml. Peptide-MHC monomers of the UV-exchange reaction were diluted 100 fold in blocking buffer. Samples were incubated for 1 h at 37° C., washed four times, incubated with 2 ug/ml HRP conjugated anti-β2m for 1 h at 37° C., washed again and detected with TMB solution that is stopped with […]. Absorption was measured at 450 nm. Candidate peptides that show a high exchange yield (preferably higher than 50%, most preferred higher than 75%) are generally preferred for a generation and production of antibodies or fragments thereof, and/or T cell receptors or fragments thereof, as they show sufficient avidity to the MHC molecules and prevent dissociation of the MHC complexes.

Substance | Peptide exchange
140 (LLNEILEQV; listed as Homo sapiens) [compound 140] | ″+++″ (≥50 = +++)
143 (KLSDVWKEL; listed as Homo sapiens) [compound 143] | ″+++″ (≥50 = +++)
144 (LLNDRIWLA; listed as Homo sapiens) [compound 144] | ″+++″ (≥50 = +++)
145 (LLLEVVKQV; listed as Homo sapiens) [compound 145] | ″+++″ (≥50 = +++)
146 (ALSDETWGL; listed as Homo sapiens) [compound 146] | ″++″ (≥20% = ++)
147 (TLTELRAFL; listed as Homo sapiens) [compound 147] | ″++++″ (≥75% = ++++)
148 (RLLENMTEVV; listed as Homo sapiens) [compound 148] | ″+++″ (≥50 = +++)
149 (YQFDKVGILTL; listed as Homo sapiens) [compound 149] | ″+++″ (≥50 = +++)
151 (SAQGSDVSLTACKV; listed as Homo sapiens) [compound 151] | ″+++″ (≥50 = +++)
152 (KLLAVIHEL; listed as Homo sapiens) [compound 152] | ″++″ (≥20% = ++)
153 (ILFSEDSTKLFV; listed as Homo sapiens) [compound 153] | ″+++″ (≥50 = +++)
154 (KLPSETIFVGC; listed as Homo sapiens) [compound 154] | ″+++″ (≥50 = +++)
155 (RLLGEEVVRV; listed as Homo sapiens) [compound 155] | ″+++″ (≥50 = +++)
156 (SLMMTIINL; listed as Homo sapiens) [compound 156] | ″++++″ (≥75% = ++++)

More lines, now with the values ahead:

Peptide exchange | Substance
″+++″ (≥50 = +++) | 157 (SLIERDLKL; listed as Homo sapiens) [compound 157]
″+++″ (≥50 = +++) | 158 (GLLDPSVFHV; listed as Homo sapiens) [compound 158]
″++″ (≥20% = ++) | 159 (VLVDDDGIKVV; listed as Homo sapiens) [compound 159]
″+++″ (≥50 = +++) | 160 (KLLEFDQLQL; listed as Homo sapiens) [compound 160]
″+++″ (≥50 = +++) | 161 (FLKNELDNV; listed as Homo sapiens) [compound 161]
″+++″ (≥50 = +++) | 162 (KLMDYIDEL; listed as Homo sapiens) [compound 162]
″+++″ (≥50 = +++) | 163 (RLLHEVQEL; listed as Homo sapiens) [compound 163]
″++++″ (≥75% = ++++) | 164 (KMLDEILLQL; listed as Homo sapiens) [compound 164]
″++++″ (≥75% = ++++) | 165 (RLLDFPEAMVL; listed as Homo sapiens) [compound 165]
″+++″ (≥50 = +++) | 166 (GLLEARGILGL; listed as Homo sapiens) [compound 166]
″+++″ (≥50 = +++) | 167 (SVIDHIHLISV; listed as Homo sapiens) [compound 167]
″+++″ (≥50 = +++) | 168 (GLIRFPLMTI; listed as Homo sapiens) [compound 168]
″+++″ (≥50 = +++) | 169 (YLAHFIEGL; listed as Homo sapiens) [compound 169]
″+++″ (≥50 = +++) | 170 (ALAGGITMV; listed as Homo sapiens) [compound 170]
″++″ (≥20% = ++) | 171 (RLQETEGMVAV; listed as Homo sapiens) [compound 171]
″+++″ (≥50 = +++) | 172 (LLLDTVTMQV; listed as Homo sapiens) [compound 172]
″+++″ (≥50 = +++) | 173 (KLGDLMVLL; listed as Homo sapiens) [compound 173]
″++++″ (≥75% = ++++) | 174 (ILLDDNMQIRL; listed as Homo sapiens) [compound 174]
